Substitutions are numbered along the chain they refer to.
T1: ID233 Cas12a
T1 chain: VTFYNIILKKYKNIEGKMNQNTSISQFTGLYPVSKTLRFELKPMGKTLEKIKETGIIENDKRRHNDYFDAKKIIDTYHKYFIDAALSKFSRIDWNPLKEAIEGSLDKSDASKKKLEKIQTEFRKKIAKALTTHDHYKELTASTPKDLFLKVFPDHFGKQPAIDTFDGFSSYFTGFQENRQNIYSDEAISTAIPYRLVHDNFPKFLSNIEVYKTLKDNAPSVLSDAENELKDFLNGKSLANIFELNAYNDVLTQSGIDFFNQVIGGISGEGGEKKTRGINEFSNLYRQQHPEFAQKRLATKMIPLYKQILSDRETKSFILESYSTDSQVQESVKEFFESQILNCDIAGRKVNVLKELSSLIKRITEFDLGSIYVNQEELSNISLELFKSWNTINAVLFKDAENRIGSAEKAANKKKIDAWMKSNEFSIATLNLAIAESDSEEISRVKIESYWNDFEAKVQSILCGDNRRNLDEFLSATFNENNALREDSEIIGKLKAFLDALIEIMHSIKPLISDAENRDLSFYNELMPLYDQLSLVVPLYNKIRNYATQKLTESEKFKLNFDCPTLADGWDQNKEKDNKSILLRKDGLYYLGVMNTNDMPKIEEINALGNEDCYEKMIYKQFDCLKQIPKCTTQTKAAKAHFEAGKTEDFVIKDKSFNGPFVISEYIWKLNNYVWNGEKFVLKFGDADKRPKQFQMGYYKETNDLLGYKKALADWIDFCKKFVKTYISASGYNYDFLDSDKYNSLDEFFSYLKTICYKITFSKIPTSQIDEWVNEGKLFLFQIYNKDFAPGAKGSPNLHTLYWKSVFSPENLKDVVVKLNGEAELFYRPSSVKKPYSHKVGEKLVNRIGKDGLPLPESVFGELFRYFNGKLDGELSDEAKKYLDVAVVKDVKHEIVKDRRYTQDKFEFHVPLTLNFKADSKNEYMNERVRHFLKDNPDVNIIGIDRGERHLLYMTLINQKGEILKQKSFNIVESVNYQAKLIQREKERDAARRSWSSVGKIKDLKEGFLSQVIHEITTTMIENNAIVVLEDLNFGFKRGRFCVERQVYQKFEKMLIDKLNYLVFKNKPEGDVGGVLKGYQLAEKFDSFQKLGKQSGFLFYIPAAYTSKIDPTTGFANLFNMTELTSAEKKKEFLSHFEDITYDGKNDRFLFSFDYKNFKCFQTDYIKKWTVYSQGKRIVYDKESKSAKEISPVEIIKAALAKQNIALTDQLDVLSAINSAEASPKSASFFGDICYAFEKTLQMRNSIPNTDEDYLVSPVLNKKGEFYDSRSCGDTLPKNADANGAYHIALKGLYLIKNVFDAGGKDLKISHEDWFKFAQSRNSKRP

T2: ID236 Cas12a
T2 chain: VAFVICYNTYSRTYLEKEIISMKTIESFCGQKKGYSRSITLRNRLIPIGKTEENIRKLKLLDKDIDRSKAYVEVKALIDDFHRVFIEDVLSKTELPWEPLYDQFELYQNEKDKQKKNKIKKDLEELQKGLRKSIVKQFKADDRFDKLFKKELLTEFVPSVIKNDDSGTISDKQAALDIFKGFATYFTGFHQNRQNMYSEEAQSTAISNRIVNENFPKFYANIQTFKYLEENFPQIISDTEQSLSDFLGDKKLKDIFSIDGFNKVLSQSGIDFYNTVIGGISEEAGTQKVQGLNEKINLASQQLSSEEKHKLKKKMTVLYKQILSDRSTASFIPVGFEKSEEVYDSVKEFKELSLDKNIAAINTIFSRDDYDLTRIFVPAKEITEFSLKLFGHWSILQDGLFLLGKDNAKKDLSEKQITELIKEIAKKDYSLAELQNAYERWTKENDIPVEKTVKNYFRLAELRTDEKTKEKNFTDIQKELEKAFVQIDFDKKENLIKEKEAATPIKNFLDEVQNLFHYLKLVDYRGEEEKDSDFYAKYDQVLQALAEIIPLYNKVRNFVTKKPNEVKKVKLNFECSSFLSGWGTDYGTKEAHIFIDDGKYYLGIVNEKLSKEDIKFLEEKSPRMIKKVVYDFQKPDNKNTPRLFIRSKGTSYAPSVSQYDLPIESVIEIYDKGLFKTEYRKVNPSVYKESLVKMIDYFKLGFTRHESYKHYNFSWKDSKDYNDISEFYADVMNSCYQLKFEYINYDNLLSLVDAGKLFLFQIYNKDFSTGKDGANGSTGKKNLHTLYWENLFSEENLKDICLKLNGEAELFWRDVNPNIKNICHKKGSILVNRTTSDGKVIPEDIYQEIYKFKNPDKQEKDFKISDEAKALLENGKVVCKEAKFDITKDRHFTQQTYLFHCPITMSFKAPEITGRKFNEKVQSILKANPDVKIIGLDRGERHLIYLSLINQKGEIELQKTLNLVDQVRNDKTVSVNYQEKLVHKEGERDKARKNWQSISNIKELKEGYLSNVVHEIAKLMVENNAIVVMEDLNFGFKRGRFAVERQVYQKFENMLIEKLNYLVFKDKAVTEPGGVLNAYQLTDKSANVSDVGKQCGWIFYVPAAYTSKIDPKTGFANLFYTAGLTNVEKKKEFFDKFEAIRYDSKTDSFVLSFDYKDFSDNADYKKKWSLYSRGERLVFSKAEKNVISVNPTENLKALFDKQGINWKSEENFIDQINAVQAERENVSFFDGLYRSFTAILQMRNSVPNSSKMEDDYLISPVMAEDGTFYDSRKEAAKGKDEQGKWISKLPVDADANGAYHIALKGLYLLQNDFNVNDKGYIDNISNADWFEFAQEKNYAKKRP

B1: 233 crRNA DYRK1A ; DYRK1A target (ssRNA ; dsDNA)
RNA: AAAAUUUCUACUCUUGUAGAUGAAGCACAUCAAGGACAUUCUAA
DNA 1: GAAGCACATCAAGGACATTCTAA
DNA 2: TTAGAATGTCCTTGATGTGCTTC
B2: 236 crRNA DYRK1A ; DYRK1A target (ssRNA ; dsDNA)
RNA: B1 RNA with A1U, C13G
DNA 1: GAAGCACATCAAGGACATTCTAA
DNA 2: TTAGAATGTCCTTGATGTGCTTC
B3: 218 crRNA MTAP ; MTAP target (ssRNA ; dsDNA)
RNA: UAAUUUCUACUAAGUGUAGAUGCCCCAAUAAUCCCCACAUGUCA
DNA 1: GCCCCAATAATCCCCACATGTCA
DNA 2: TGACATGTGGGGATTATTGGGGC
B4: 218 crRNA DYRK1A ; DYRK1A target (ssRNA ; dsDNA)
RNA: UAAUUUCUACUAAGUGUAGAUGAAGCACAUCAAGGACAUUCUAA
DNA 1: GAAGCACATCAAGGACATTCTAA
DNA 2: TTAGAATGTCCTTGATGTGCTTC
B5: 233 crRNA MTAP ; MTAP target (ssRNA ; dsDNA)
RNA: AAAAUUUCUACUCUUGUAGAUGCCCCAAUAAUCCCCACAUGUCA
DNA 1: GCCCCAATAATCCCCACATGTCA
DNA 2: TGACATGTGGGGATTATTGGGGC
B6: 236 crRNA MTAP ; MTAP target (ssRNA ; dsDNA)
RNA: B5 RNA with A1U, C13G
DNA 1: GCCCCAATAATCCCCACATGTCA
DNA 2: TGACATGTGGGGATTATTGGGGC

Assays:
Assay in all cases: cell_activity; PAM TTTV/TTTN; RNP in HEK293T
Conditions in all cases: tags: NLS, His6
ID233 Cas12a = target: T1, ID233 Cas12a
Description: (§1) To confirm the in vivo gene editing activity of the CRISPR enzymes according to Experimental Example 4.1, the following experiments were performed: [0474] 1) CRISPR/Cas12a complexes were assembled according to Experimental Example 1.5 using CRISPR enzymes prepared according to Experimental Example 4.1 and guide RNAs. [0475] 2) The CRISPR/Cas12a complexes assembled in 1) were transfected into HEK293T cells according to Experimental Example 1.8, and gene editing activity was measured.

ID236 Cas12a = target: T2, ID236 Cas12a
Description: as §1

ID218 Cas12a = target: ID218 Cas12a
Description: as §1

Binder	activity (ID233 Cas12a) [% indel]	activity (ID236 Cas12a) [% indel]	activity (ID218 Cas12a) [% indel]
B1	12.2		
B2		5.2	
B3			90.4
B4			71
B5	14.8		
B6		17	
